From the DeepSol protein solubility set

Experiment: soluble on expression in E. coli; label from the status in PepcDB or PDB records

| Sequence | soluble on expression in E. coli |
| --- | --- |
| MAHHHHHHMQRHSRRGLLKYLSGVRVEYGGSAAKLLDSYLHQDAGAKHAANLPVSQRYFYIKNRNNDASLSSATGASQQHQTVQLRLGAAQMLSSSQHTSIDNLNEAHPLYYAQTSPSAAGLAAPLVLALKRLRIRQLTALQGALVPLLLKGKHVIAHSETGTGKSFGIALALANRIIRDQLNYRLHTVVLVPTEELALQYDKWLRHFGGCTSQVVQVAIDSIPLEAQLAKLHNIQPHVLVGTPQRVAEIVRLSPSILGEKLRRKVDCVVLDEADMIIHANVVYGRQQLSGANLVDRLFRNRREEVPAQLVAASATVDGVTAQTLNTWTRNDRTVRLTTSFVEHTIPPTIQFYFFGASRAYPLERCLLLSLQLICTQRPDARILIFTEDERVAEVCTLLTSAEVEGEMRRIAPGALSSTKVFAGALHALPRSIPSADNKESHGPDNPVSHRRVPLTTATQQAAPFSAIRGSGNVYEDVRAHQVIRQHGDVYVKNNSSLSRLNEGKLVVGVGSFNSSRGLHVNGITHVILYGACPSAACFVHCAGRTGRMGAEGDVLVLYPPSSGRQVQQVCSSLEVPFHSSRMSAVEDLLRSGEARTTESAAGAVTESASGAAADNT | not soluble |
| GPGSMIIWAVGTTNKAKLDSVDIAVRMCFPSYQHDVRPVAVLSIVRAQPISAEESQQGAQHRAHEALSLVPEAHYGVGLEGGLEKISDRWFECGWMYVIERSTGRCGIGSSARFEMSQKLMSKILDEGKELAEVMDEMTGETDVRSGQGAMGVLTAGYLNRAESYSHGLIFALAPFLSDHKYWD | not soluble |
| MTETSTVSIASSAIVCVEADIKGEVIIKEGCVVHPFVVFDATKGPIYVGENNIFEEYAVIRNNSDGQPMIIGDWNIFQVHSKSSAKYVGSRNVIGVHAVLEDGCSVSDDCSVGAKCTVFSHQNLEPSVSVYAATNLSRTTKTPNMTSPHQIEFLRKILPSYHHLYGKKKAVATASASAAQ | not soluble |
| MSLNNKVLVTGGTGFVGMRIISRLLEQGYEVQTTIRDLSKADKVIKTMQDNGISTERLMFVEADLSQDEHWDEAMKDCKYVLSVASPVFFGKTDDAEVMAKPAIEGIQRILRAAEHAGVKRVVMTANFGAVGFSNKDKNSITNESHWTNEDEPGLSVYEKSKLLAEKAAWDFVENENTIVEFATINPVAIFGPSLDAHVSGSFHLLENLLNGSMKRVPQIPLNVVDVRDVAELHILAMTNEQANGKRFIATADGQINLLEIAKLIKEKRPEIAQKVSTKKLPDFILSLGAKFNHQAKEGKLLLDMNRNVSNERAKTLLGWEPIATQEEAILAAIDSMAKFHLIEGHHHHHH | soluble |
| MQKFIIHKGIACPLEYANIDTDQIIPKQFLLAVSKQGFGKHLFHDLRYLDDKESVLNMDFNLNKKEYQNSSILVSFENFGSGSSREHAPWALVDYGIRAIIAPSFADIFKNNALGNGLLTIELAKDEVLEIVDELKKSQDKNIEISLLEKRVFFKDKIFSFDLDDFHRICLLEGLDNIALTLKHEAQIKAYEKNSKSFLV | soluble |
| MALQVASAPHGSSEDSTSASLPANYPYHTRMRRNEYEKAKHDLQIELLKVQSWVKETGQRVVVLFEGRDAAGKGGTIKRFMEHLNPRGARIVALEKPSSQEQGQWYFQRYIQHLPTAGEMVFFDRSWYNRAGVERVMGFCSPLQYLEFMRQAPELERMLTNSGILLFKYWFSVSREEQLRRFISRRDDPLKHWKLSPIDIKSLDKWDDYTAAKQAMFFHTDTADAPWTVIKSDDKKRARLNCIRHFLHSLDYPDKDRRIAHEPDPLLVGPASRVIEEDEKVYAEAAAAPGHANLDIPA | not soluble |
| MGSDKIHHHHHHMGGLGARHLYGSALGEHLVFKGGTSLSKAYQVIQRFSEDVDLTYDIRAIAPDLVGDDGEALPETRSEEKRWSSEVRKRLPNWVEGSVQPIIADALAAEALAAAIRVEGEKLFIDYAAATAGSGYVAPSVILEFGARSTGEPASLRDIACDASGLIEGVTFPTARPRVMHAERTFWEKATAIHVFCLQERLRGDRFARHWHDVARLDETGFTPSAFADRDLANAVARHKTMFFAEKAPDRTPIDYAAAVNGGLRLVPAGDGLKALEEDYARMVDDGLLLEDAEPFEALMARCADIAERANYIRE | not soluble |
| MRVHVPAQDAREAVRQAAATTGDADVLSETDRRLLATAHELDGTLVSDDYAMQNVAAELAVTVESISQDGITERRDWRLQCQGCGREFDDTDHDRCPVCGSPLERKNPSLEHHHHHH | not soluble |
| MASPAAGDVLIVGSGLVGRSWAMLFASGGFRVKLYDIEPRQITGALENIRKEMKSLQQSGSLKGSLSAEEQLSLISSCTNLAEAVEGVVHIQECVPENLDLKRKIFAQLDSIVDDRVVLSSSSSCLLPSKLFTGLAHVKQCIVAHPVNPPYYIPLVELVPHPETSPATVDRTHALMRKIGQSPVRVLKEIDGFVLNRLQYAIISEAWRLVEEGIVSPSDLDLVMSDGLGMRYAFIGPLETMHLNAEGMLSYSDRYSEGMKRVLKSFGSIPEFSGATVEKVNQAMCKKGPADPEHLAARREWRDECLKRELAKLKRQMQPQ | soluble |
| DPAVTYYRLEEVAKRNTAEETWMVIHGRVYDITRFLSEHPGGEEILLEQAGADATESFEDIGHSPDAREMLKQYYIGDVHPNDLKP | soluble |
| ICMNVENEVTHTQLQFNHTDKYCGNIKNLISCKLYQHALTLIDSFRHDKSI | not soluble |
| MGSDKIHHHHHHKLRDEGDAALKAKDYATVVTKYGEYLKQNNYQDTARIFNCGYAANQAKNYAEAAKYFDMAVKMNYNVDDSYVGEAMAYRNLNKTEEFLTTVKEGLKVIPDGNKNKTNLEKLLYGYCIKQGQAAQKKGDLAGAEKMYKEVLAVSNKDYQSNAYYSLGAMLYGNGAKILQAATPIATSEPDKYNAEKAKADKDFKQAKEYLTKAVELDPKDENSKKILASINDILK | not soluble |
| MKATSEELAIFVAVVESGSFSRAAEQLGQANSAVSRAVKKLEMKLGVSLLNRTTRQLSLTEEGERYFRRVQQILQEMAAAETEIMESRNTPRGLLRIDAATPVMLHFLMPLIKPFRERYPEITLSLVSSETFINLIERKVDVAIRAGTLTDSSLRARPLFTSYRKIIASPDYIARFGKPETVEELKRHLCLGFSEPVSLNTWPIACSDGQLHEIKCGISSNSGETLKQLCLNGNGIACLSDYMIDKEIARGELVELLADKRLPVEMPFSAVYYSDRAVSTRIRAFIDFLSEYIRTAPAGAVKEG | not soluble |
| MNSPGVSANFFIPLSFDATSLIKYKLSDDLLARVAASGSLRSSSCRSAVWRLVLRCLPYETSDWEISLSRSRNLYRAHKENHLIDPHDTKFSQDPEFNNPLASIEQNPWNTFFEDNDLRDIIGKDVSRTFPEIEFFQNTSIRQMMSDILLVYAKEHPFVNYRQGMHEILAPLIFVIYSDNEAFQHAKENDELKMLTVEEEDILNCLFCKEYLEQDSYNLFCSVMLEVSRWYEEPTVTESPKRPIPKEPYMRVQDSAPASRLMEDLIDIGNLLHEIDPTLAKHLSTLDIPPQLYGIRWLRLLFGRELPLHDLLFLWDVLLIDRPIAPLAKCMFVSLLVQIRHLLLSSDYGGCLQYLMRYPPIADIDSFVKLARHYRNPKKNAKPMIKSNNFSHITVAGSSHPNRTQRPQRPPAAVNSKNDGAESPSTILALAPVFQKVKNTIRDRSNTVSGPSSPRRSNEPLREPLRTPQKKDNWANEVQMMEEQVSTLQTRLNEQDMMCCQVSKALEIYAEDVRNAKSSELCAVLSQNLLELSKTLMSIKTVPVGTSPPKHSRNGISDIQPKPRDSQPIRQHNEMVDMATKRPPL | not soluble |
| MVYVAVLANIAGNFPALTAALEKIEELKEEGYEIEKYYILGNIVGLFPYPREVIEAIKNLAKTSNVKVIRGKYDQLIAMSDPHAGDPKYIDKLEIPDHLKATLKYTWEKLGHEGREYLRDLPIYLVDKIGKNEIFGVYGSPVNPFDGEILPDQPTSYYEAIMRPVKEYEMLLVASPRYPLDAMTMYGRVVCPGSIGFPPAREHKATFALVDAETLKVKFIEVEYDKKIIEDRIKLEKLPEEVIKILYHGGKA | soluble |
| MGSDKIHHHHHHMEKQVATSIFESLSSGLRLDVFRLLVKKGPDGMVAGEIANALDVPPANLSFHLKALSQARLVTVEQEGRFQRYRADIPLMLDLIAYLTDECCTGSPAKCVEKVAASNCAKELLPPPVTHSNESDNMNILFLCTGNSCRSILAEAVFNHLAPTGWKAMSAGSQPTGTVHPRSLALLAREGIDTNGLHSKSWDNLPQVPDVVITVCSNAAGETCPAYLGAVLRAHWGVDDPAHATGTEAEIEAAFTAAYRILRRRIEAFLALPLVELARDRTRLKAELDRIGALSA | not soluble |
| MAHHHHHHQTQTPSQLLQSFTTRTTDYNQLINSVGINAITPQQIQRIEKLSGKAPHHYLSRGVFLAEKSLDKFLDDVEAKKPTFIFIQKYPQKEVALEEYITLEFARYLQDAFNIQVIIQILDDIKVLNREATINEASKMSNDLMKYILAFGFNEDKTFIYTDYQYFGKMYRTISLVEKATAYNVVQPFFNFEYSDNIGKLASPSIMTASMFSQSYSHFFSSPARCLVLDSIKNVQFHSIIDQIATTLNFIQPTVLFHKMVPLLSGVTKFDIPSDHNSILLSDNAKQVERKINKLAFSGGRNTTEEHKKLGGQCDIDVSFQLLNIFSSDNAQVKDVEEKYSKGELLSGELKKIVSASMKDFIVAYDAKKKPITTAYLKAYISKTKF | soluble |
| KKEDIVRIHASSGTSGKPTVVGYTAKDIETWSDLIARSLTMIGLSKGDTIQNSMNYGLFTGGLGFHYGVERMGAMIVPAATGNTARQLEMMIDFGVTAVHCTPSYAFYLAETAEELDLIDKLSLKAAIFGGEPWSENTRKQLEKRLNLKAYDCYGLSEMFGPGVGFECQEQDGLHIW | not soluble |
| SDLFTDGDIFQDIVDAACKRRVPVYIILDEGGVKYFLEMCQGLELADFRIRNIRVRSVTGIGFYMPMGKIKGTLSSKFLMVDGDKVATGSFSFTWSSSYVDRNLLLLLTGQNMEPFDIEFRELYAISEEVNLHQHLGLAGRIGLNYSSTVARKLINPKYALVAGTRRPPGEMMRWAARQQREAGGNVEGQEEGSGGGESARRLESFLNDLVTVEQILPTVEPISPRLQRPTNGRPVSHAHTDAKHRSREALPQNGKGEAANGEATPAKEGKRFSSRLFSRRVKRPAVPSSMASSPSTETFADVEFPLGKRHNEGSNANISGKGITKASNCVIS | soluble |
| MAKLYFYYSTMNAGKSTTLLQSSYNYRERDMNTLVYTAAIDDRFGVGKVTSRIGISQDAFLFRSETNLFDEINEHLKKEKVHCVLVDEAQFLSKQQVYQLSDVVDKLKIPVLCYGLRTDFQAELFEGSKYLLAWADQLEELKTICYCGRKANFVLRLNDQGEVIKEGAQIQIGGNDSYLSVCRLHYKEKCGQILEHHHHHH | soluble |
| GSGGIEGRHMVELLKLVRSSGCAAKVGPGDLQEILKGFNIYTDESTLVSIGDDAGVYEHNGIIWVYTVDIITPVVNDPYLWGAISTANALSDVYAMGGIPVNALAISCFNNCELDIEIFREVIRGALDKLREAKTVLLGGHTIDDKEPKFGLSVAGICPEGKYITQSGAQVGQLLILTKPIGTGILIKGLKEGILKEEDINEAIENMLALNDKARNLMLSLDATACTDVTGFGLLGHAWNICKNSNIGARIFFEKVPYYQLSENLVKKKIYPKGAIENLNFVKNYLKSNLDNWKLILLSDPVTSGGLLFTINKEKLEKIDETAKELEVNYWIIGETIAENVLEVL | soluble |
| MSLKIMGFYSQVILPRLLDWSLSDPTLATYRQELLTDVTGEVLEIGFGTGLNLAYYPSHIHKITTVDVNPGMNTIAQKRIDDSGIKVQQLLLSGENLPMADNTFDSVVSTWTLCSIANVEQALQEVYRVLKPGGKFFFLEHGLSNKPNVQVWQNRLTPIQKVLADGCHLNRNIQQLVEQSFDHVELKRFTPENFPDLMAHFYKGCATKKSIEGHHHHHH | not soluble |
